According to patent US6541002 (THOMAS JEFFERSON UNIVERSITY, dated 2003):

Target: T1, Vpr-Gal4DB chimeric protein (HIV-1, UniProt P04386 1-147; P12520 1-96)
T1 construct: also called Vpr-Gal4BD
Assay: yeast two-hybrid, growth on histidine-deficient medium

B1: wild type Gal4AD (other)
chain: ANFNQSGNIADSSLSFTFTNSSNGPNLITTQTNSQALSQPIASSNVHDNFMNNEITASKIDDGNNSKPLSPGWTDQTAYNAFGITTGMFNTTTMDDVYNYLFDDEDTPPNPKKE
binding result: no binding
